Laboratory results as given in patent US20210115149A1 (ABVISION, published 2021).
Values belong to the binder of their own block, whether it stands above or below them.

Target: human CD40 protein (human, UniProt P25942 21-193, limits assumed)
Assay: ELISA screening of hybridoma wells against human CD40 protein
Method: Antibodies were created by electrofusion of human CD40-immunized mouse splenocytes (Balb/c strain) with SP2/0-A14 cells (ATCC) (Immunization procedure; dose, adjuvants, time course). Fused cells were seeded into 96-well plates and ELISA screening was conducted to identify wells that contain antibodies which interact with the human CD40 protein. Positive wells were further expanded and followed a limited dilution to isolate monoclonal hybridomas. Purified antibodies were used to test their ability to trigger CD40 signaling by an in-house created reporter system. Basically, an engineered 293T cell line was transduced to stably express the human CD40 protein. When testing the agonistic functions of CD40 antibodies, DNA plasmids of an NF-kB-driven luciferase reporter and Fc-gamma receptors were transiently transfected into established CD40-293T cells. Antibodies to be tested were added to the culture and incubated for 24 hours. Treated cells were harvested, lysed and analyzed on a plate reader for the activity of luciferase. Anti-human CD40 mAb clone #1E10-H2 and clone #2G9-B11 were tested binding to and activating human CD40. The sequences of the IgG heavy chain and light chain variable domains of anti-human CD40 agonistic mAb clone #1E10-H2 are shown in FIG. 1.

Sequence of human CD40 protein (P25942 21-193 limits assumed): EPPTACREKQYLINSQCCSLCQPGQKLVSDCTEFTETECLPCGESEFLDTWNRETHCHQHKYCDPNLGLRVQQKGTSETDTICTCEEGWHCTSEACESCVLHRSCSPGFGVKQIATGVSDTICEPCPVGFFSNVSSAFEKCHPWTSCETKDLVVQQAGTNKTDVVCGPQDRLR

binding result: binds
B1: Anti-human CD40 mAb clone #1E10-H2 (antibody, V domains shown)
VH: QVQLQQSGAELMKPGASVKISCKATGYTFSSYWIEWIKQRPGHVLEWIGEILPGSGSANYNERFKGKATFTADTSSNTAYMQLTSLTSEDSAVYYCARLRYYGSSPWFAYWGQGTLVTVSA
VL: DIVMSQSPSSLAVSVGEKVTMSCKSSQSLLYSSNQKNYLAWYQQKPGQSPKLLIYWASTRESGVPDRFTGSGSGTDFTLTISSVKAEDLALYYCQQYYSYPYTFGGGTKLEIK
notes: Mouse hybridoma monoclonal antibody (Balb/c), purified; also called anti-human CD40 agonistic mAb (clone #1E10-H2)

binding result: binds
B2: Anti-human CD40 mAb clone #2G9-B11 (antibody, mouse IgG1, V domains shown)
VH: EVQLVESGGGLVKPGGSLKLSCAASGFSFSSYAMSWVRQTPEKRLEWVATISSGGDYTYYPDSVKGRFTISRDNAKNTLYLQMTSLRSEDTAMYYCARRNHFTYWGQGTLVTVSA
VL: DIVMTQSHKFMSTSVGDRVSITCKASQDVVTSVAWYQQKPGQSPKLLIYWTSTRHTGVPDRFTGSGSGTDFTLTISNVQSEDLADYFCQQYSSYPLTFGAGTKLELK
notes: Mouse hybridoma monoclonal antibody (Balb/c), purified; also called anti-CD40 2G9-B11
